Laboratory results reported in US6660837B1, “Modified protein derived from protein kinase N” (Kirin Beer Kabushiki Kaisha, priority 1995, dated 2003).
Entries after “also recorded” stand apart in the source; their conditions may differ. Blank lines part the entries; values can stand above or below the substance they belong to.

Experiments:
[1] = target: T1, binding of PKN to GTPγS.GST-RhoA (Homo sapiens, UniProt P61586); experiment: Inhibition of binding between in vitro translated PKN and GTPγS.GST-RhoA by synthetic peptides; conditions: concentration-dependent
T1 construct: made in house; PKN 1-474: in vitro translation
Protocol: A protein corresponding to the amino acid sequence 1-474 in SEQ ID NO: 1) was prepared by in vitro translation. GTPγS or GDP.GST-RhoA (15 nM) was incubated with PKN (1.5 μl) prepared by in vitro translation in a total volume of 200 μl of binding buffer (20 mM Tris/HCl at pH 7.5, 1 mM EDTA, 0.5 mM DTT, 5 mM MgCl2 and 1 μg/ml leupeptin) for 60 min at 4° C. Then 40 μl of glutathione-Sepharose 4B (Pharmacia Biotech) preincubated in binding buffer containing 10 mg/ml E. coli extracts to block non-specific binding was added, and the mixture was rotated for 30 min at 4° C. Unbound proteins were removed by four washes with binding buffer containing 0.2% Nonidet P-40 and 50 mM NaCl, and by two washes with binding buffer. Specifically bound proteins were eluted with binding buffer containing 10 mM reduced glutathione and subjected to SDS-PAGE, and the gel was subjected to autoradiography.
Synthetic peptide fragments for potential RhoA binding region of PKN were synthesized with an automated peptide synthesizer (Applied Biosystems, model 431). An experiment using synthetic peptides wes carried out using the peptides in various concentrations in 200 μl of binding buffer.

wild type RhoA = target: T2, wild type RhoA (Homo sapiens, UniProt P61586); experiment: Yeast two-hybrid, N-terminal region of PKN with wild type RhoA; assay type: binding; conditions: yeast L40, histidine requirement
T2 construct: expressed in transfected cells; host or cells: yeast strain L40
From the text: (§1) According to a method described in A. B. Vojetk et al. Cell 74, 205-214 (1993), wild type H-Ras, wild type RhoA with C-terminal CAAX structure removed (S. Ando et al. Jikken Igaku 11, 1973-1980 (1993)), and variant RhoA^Val14cDNA fragment, were introduced into pBTM116 vector (A. B. Vojetk et al, ibid.) to construct vectors (designated as pBTM116-RasWT, pBTM116-RhoWT, and pBTM116-Rho^Val14), for expression thereof and LexA as fusion protein in yeast cells, which were then transformed into yeast (strain L40).
(§2) cDNA in N-terminal region (the amino acid sequence 7-155 in SEQ ID NO: 1) of PKN was introduced into BamHI site of pACT vector ([…] Library Kit, manufactured by Clontech Laboratories, Inc.) to construct a vector (designated as pACTIIHK-PKN-N) for expression thereof and GAL4 as fusion protein in yeast cells. The cDNA fragment, used here, corresponding to the N-terminal region of PKN was prepared as described in Example 4 (1).
(§3) Yeast transformed with pBTM116-RasWT, pBTM116-RhoWT, and pBTM116-Rho^Val14 was further transformed with pACTIIHK-PKN-N. Transformants were screened based on histidine requirement (A. B. Vojetk et al, Cell 74, 205-214 (1993).

variant RhoA^Val14 = target: T3, variant RhoA^Val14 (Homo sapiens, UniProt P61586, G14V); experiment: Yeast two-hybrid, N-terminal region of PKN with RhoA^Val14; assay type: binding; conditions: yeast L40, histidine requirement
T3 construct: expressed in transfected cells; host or cells: yeast strain L40
From the text: as §1, §2, §3

RhoA^Val14 CLVL^− = target: T4, RhoA^Val14 CLVL^− (Homo sapiens, UniProt P61586, G14V); experiment: Yeast two-hybrid, truncated PKN with RhoA^Val14CLVL^−; assay type: binding; conditions: yeast L40
T4 construct: expressed in transfected cells; host or cells: yeast strain L40
From the text: The cDNA fragments encoding various length of human PKN were inserted into the vector pBTM116 (Example 7) in frame with the upstream LexA DNA-binding domain sequences or the vector pVP16 (Example 7) in frame with the upstream VP16 transcription activation domain sequences. The cDNA fragments encoding human RhoA, RhoA^Val14, and RhoA^Ala37 were obtained by digesting pGEX-RhoA, pGEX-RhoA^Val14, and pGEX-RhoA^Ala37 (Example 1) with restriction enzymes, respectively, then cloned into pBTM116 and pVP16.
The expression plasmids were transfected into yeast L40 cells and plated on semi-solid media lacking tryptophan and leucine. Interaction was examined using a filter lift assay for the β-galactosidase activity in the same manner as in Example 6. […]

α-actinin (HuActSkl) = experiment: Yeast two-hybrid, regions of PKN with HuActSkl; assay type: binding, human
Protocol: Schemes of the fusion constructs for human PKN, human skeletal muscle type α-actinin (HuActSkl , designated in (Beggs, A., et al., J. Biol. Chem. 267, 9281-9288 (1992)) and non-skeletal muscle type α-actinin (HuActNm, designated in (Beggs, A., et al., J. Biol. Chem. 267, 9281-9288 (1992)) used in this study are shown in FIGS. 41 and 42. Screening of proteins, which bind to the N-terminal region of human PKN (the amino acid sequence 1-540, this region being designated as “PKNNl”), was performed as described in Example 6. Primary positive clones were recovered and retransfected into the original yeast host strain YGH1 (a, ura3-52, his3-200, ade2-101, lys2-801, trpl-901, leu2-3, Can^r, gal4-542, gal80-538, LYS2::gal1uas-gal1tala-HIS3, URA3::gall-lacZ) in combination with the Gal4bd-PKN or the Gal4bd-p53 tumor suppresser. Plasmids that activated marker expression only in the presence of PKN were analyzed further.
The two-hybrid methods was employed to identify the region of PKN that interacted with HuActSkl , and this region was compared with the binding site for RhoA, which binds to PKN, in vitro and in vivo. […] This region corresponds to the second leucine zipperlike sequence and the N-terminal region adjacent thereto, which is conserved through evolution in vertebrates (Mukai, H., et al., Biochim. Biophys. Acta 1261, 296-300 (1995)). […]

[2] = target: T5, binding of full-length α-actinin (HuActSkl) to GST-PKNN1 (Homo sapiens, UniProt P35609); experiment: Effect of PI4,5P2 on in vitro binding between α-actinin and PKN
T5 construct: 2 μl of in vitro translated full-length HuActSkl was mixed with 5 μg of GST-PKNN1 fusion protein; made in house; host or cells: HuActSkl: rabbit reticulocyte lysate; GST-PKNN1: E. coli
Protocol: For analysis of the effect of phosphatidylinositol 4,5 bisphosphate (PI4, 5P2) (Boehringer Mannheim) on the binding between α-actinin and PKN, 2 μl of in vitro translated full-length HuActSkl was mixed with 5 μg of GST-PKNN1 fusion protein or with 25 μg of GST alone in 400 μl of buffer P (20 mM Tris/HCl at pH 7.5, 0.5 mM DTT, 120 mM NaCl, 1 mM EDTA) and incubated for 1 hr at room temperature with or without PI4, 5P2. After addition of 25 μl of glutathione-Sepharose 4B pretreated with E. coli extract, the binding reaction was continued for additional 30 min at 4° C. The glutathione-Sepharose 4B was then washed four times in buffer P containing 0.01% Triton X-100. Bound proteins were eluted with GST elution buffer and were subjected to SDS-PAGE. The binding was visualized and quantitated by an imaging analyzer (FUJI BAS1000).

PKN in Swiss 3T3 cells = assay type: cell-based; conditions: 200 ng/ml for 10 min

inhibition of binding of PKN to GTPγS.GST-RhoA [1]: inhibited the binding
Substance: amino acid sequence 94-113: synthetic peptide fragment corresponding to the amino acid sequence 94-113 in SEQ ID NO: 1 (LHAHVVLPDPAATHDGPQSP; UniProt Q16512 94-113, looked up, fragment)

binding to wild type RhoA (wild type RhoA): binds
binding to variant RhoA^Val14 (variant RhoA^Val14): binds
Substance: N-terminal region (amino acids 7-155) of PKN: amino acid sequence 7-155 in SEQ ID NO: 1 expressed as GAL4 fusion protein in yeast

interaction with RhoA^Val14 CLVL^− (β-galactosidase filter assay) (RhoA^Val14 CLVL^−): interacted
Substance: amino acid sequence 33-111: truncated human PKN, amino acid sequence 33-111 in SEQ ID NO: 1, Rho protein-binding region
interaction with α-actinin in two-hybrid system (α-actinin (HuActSkl)): hardly interacted

effect on binding of full-length α-actinin to PKN ([2]; 10 μM): stimulated the binding
concentration up to which binding activity was elevated ([2]; decreased at higher concentrations up to 100 μM): 2.5 to 10 µM
Substance: phosphatidylinositol 4,5 bisphosphate [PI4, 5P2]

Substance: lysophosphatidic acid [LAP]
stimulation of autophosphorylation of PKN (PKN in Swiss 3T3 cells): twice

inhibition of binding of PKN to GTPγS.GST-RhoA [1]: inhibited the binding
Substance: amino acid sequence 74-93: synthetic peptide fragment corresponding to the amino acid sequence 74-93 in SEQ ID NO: 1 (ELLLRGSSRRLDLLHQQLQE; UniProt Q16512 74-93, looked up, fragment)

Substance: amino acid sequence 82-103: synthetic peptide fragment corresponding to the amino acid sequence 82-103 in SEQ ID NO: 1 (RRLDLLHQQLQELHAHVVLPDP; UniProt Q16512 82-103, looked up, fragment)
inhibition of binding of PKN to GTPγS.GST-RhoA [1]: excellent inhibitory activity; also recorded: inhibited the binding

interaction with RhoA^Val14 CLVL^− (β-galactosidase filter assay) (RhoA^Val14 CLVL^−): interacted
Substance: amino acid sequence 1-538: truncated human PKN, amino acid sequence 1-538 in SEQ ID NO: 1, two-hybrid fusion
